Values belong to the binder of their own block, whether it stands above or below them.
How the values were obtained:
Conditions in all cases: both partners purified
[1] = molecular target: T1, Ups1ΔC5 (Ups1 lacking the C-terminal five residues), N-terminally His6 tagged (S. cerevisiae, UniProt Q05776 1-170); experiment: crystal structure; Ups1ΔC5–Mdm35ΔC5 complex without PA, 1.40 Å; sitting drop at 20 °C, 0.2 M ammonium citrate tribasic pH 7.0, 20% polyethylene glycol 3,350
T1 construct: Ups1, Saccharomyces cerevisiae; full length is 175 amino acids, this construct lacks the C-terminal five residues; No removal of the His6 tag is described; the complex with PA was purified again on Ni-NTA before crystallisation; also called His6-Ups1ΔC5; source: E. coli SHuffle T7, coexpressed with Mdm35ΔC5, purified (Ni-NTA, Superdex 200); not shown: His6, N-terminal, kept
T1 sequence (looked up): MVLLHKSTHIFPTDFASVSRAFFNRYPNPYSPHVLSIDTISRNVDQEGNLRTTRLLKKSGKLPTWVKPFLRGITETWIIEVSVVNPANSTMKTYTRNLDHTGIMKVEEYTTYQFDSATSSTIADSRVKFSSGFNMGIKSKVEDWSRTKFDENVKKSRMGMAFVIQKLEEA

[2] = molecular target: T2, full-length His6-Ups1 ΔLid (lacking the Ω1 loop, residues 62–71) (S. cerevisiae, UniProt Q05776 1-175, ΔLid (lacking residues 62–71)); experiment: SEC; 10 μM full-length Ups1–Mdm35 complex (WT or mutant Ups1) after incubation with NBD-PA donor liposomes and centrifugation; supernatant on Superdex 200 10/300 GL; 20 mM Tris-HCl pH 7.5, 150 mM NaCl; absorbance at 280 and 460 nm
T2 construct: Ups1, Saccharomyces cerevisiae, full length (175 amino acids) less residues 62-71; source: E. coli SHuffle T7, coexpressed with Mdm35, purified (Ni-NTA, Superdex 200)
T2 sequence (looked up): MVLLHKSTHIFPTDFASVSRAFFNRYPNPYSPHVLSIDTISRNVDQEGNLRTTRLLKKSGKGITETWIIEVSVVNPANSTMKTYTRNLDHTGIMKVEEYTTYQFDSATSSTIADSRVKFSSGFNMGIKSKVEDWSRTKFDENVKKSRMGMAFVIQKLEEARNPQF

[3] = molecular target: T3, full-length His6-Ups1 K6E/K128E (S. cerevisiae, UniProt Q05776 1-175, K6E | K128E); experiment: as above
T3 construct: Ups1, Saccharomyces cerevisiae, full length (175 amino acids); source: E. coli SHuffle T7, coexpressed with Mdm35, purified (Ni-NTA, Superdex 200)
T3 sequence (looked up): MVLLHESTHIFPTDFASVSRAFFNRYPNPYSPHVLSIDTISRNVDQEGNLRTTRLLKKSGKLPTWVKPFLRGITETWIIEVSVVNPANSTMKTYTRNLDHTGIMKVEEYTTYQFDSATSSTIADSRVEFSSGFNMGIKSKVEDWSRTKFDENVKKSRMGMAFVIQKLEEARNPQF

[4] = molecular target: T4, full-length Ups1, N-terminally His6 tagged (from the His6–Ups1–Mdm35 complex) (S. cerevisiae, UniProt Q05776 1-175); experiment: as above
T4 construct: Ups1, Saccharomyces cerevisiae, full length (175 amino acids); Added to the assays as the purified complex with Mdm35; also called WT Ups1; Ups1WT; source: E. coli SHuffle T7, coexpressed with Mdm35, purified (Ni-NTA, Superdex 200); not shown: His6, N-terminal, kept
T4 sequence (looked up): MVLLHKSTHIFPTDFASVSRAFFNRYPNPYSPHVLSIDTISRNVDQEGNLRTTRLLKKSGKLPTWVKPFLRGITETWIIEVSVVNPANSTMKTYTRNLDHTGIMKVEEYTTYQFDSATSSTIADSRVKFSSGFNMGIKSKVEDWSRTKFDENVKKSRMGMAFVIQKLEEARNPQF

[5] = molecular target: T5, full-length His6-Ups1 R25K (S. cerevisiae, UniProt Q05776 1-175, R25K); experiment: as above
T5 construct: Ups1, Saccharomyces cerevisiae, full length (175 amino acids); source: E. coli SHuffle T7, coexpressed with Mdm35, purified (Ni-NTA, Superdex 200)
T5 sequence (looked up): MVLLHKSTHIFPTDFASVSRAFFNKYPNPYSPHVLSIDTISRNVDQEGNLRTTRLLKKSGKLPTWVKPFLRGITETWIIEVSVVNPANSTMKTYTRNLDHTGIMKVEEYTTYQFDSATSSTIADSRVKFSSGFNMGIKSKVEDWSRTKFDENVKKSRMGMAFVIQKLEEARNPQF

[6] = molecular target: T6, full-length His6-Ups1 R25E (S. cerevisiae, UniProt Q05776 1-175, R25E); experiment: as above
T6 construct: Ups1, Saccharomyces cerevisiae, full length (175 amino acids); source: E. coli SHuffle T7, coexpressed with Mdm35, purified (Ni-NTA, Superdex 200)
T6 sequence (looked up): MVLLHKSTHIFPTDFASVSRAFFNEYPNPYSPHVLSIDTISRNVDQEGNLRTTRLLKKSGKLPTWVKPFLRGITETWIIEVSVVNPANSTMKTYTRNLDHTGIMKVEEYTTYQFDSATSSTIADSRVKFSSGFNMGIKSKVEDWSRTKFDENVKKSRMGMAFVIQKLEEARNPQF

[7] = molecular target: T7, full-length His6-Ups1 K61E/K155E (S. cerevisiae, UniProt Q05776 1-175, K61E | K155E); experiment: as above
T7 construct: Ups1, Saccharomyces cerevisiae, full length (175 amino acids); source: E. coli SHuffle T7, coexpressed with Mdm35, purified (Ni-NTA, Superdex 200)
T7 sequence (looked up): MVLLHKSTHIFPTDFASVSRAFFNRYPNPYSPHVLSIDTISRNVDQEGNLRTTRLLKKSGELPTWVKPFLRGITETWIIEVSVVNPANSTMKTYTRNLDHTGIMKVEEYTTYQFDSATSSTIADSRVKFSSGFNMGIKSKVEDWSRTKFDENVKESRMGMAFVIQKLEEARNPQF

[8] = molecular target: T8, full-length His6-Ups1 N24C (S. cerevisiae, UniProt Q05776 1-175, N24C); experiment: cross-linking; disulfide bond between Ups1N24C and Mdm35N25C on separate chains; SDS–PAGE with or without β-mercaptoethanol, CBB staining
T8 construct: Ups1, Saccharomyces cerevisiae, full length (175 amino acids); In the pull-down with GST-Mdm35: the chain set free from Mdm35N25C by pretreatment with DTT; source: E. coli SHuffle T7, coexpressed with Mdm35N25C, purified (Ni-NTA, Superdex 200); not shown: His6, N-terminal, kept
T8 sequence (looked up): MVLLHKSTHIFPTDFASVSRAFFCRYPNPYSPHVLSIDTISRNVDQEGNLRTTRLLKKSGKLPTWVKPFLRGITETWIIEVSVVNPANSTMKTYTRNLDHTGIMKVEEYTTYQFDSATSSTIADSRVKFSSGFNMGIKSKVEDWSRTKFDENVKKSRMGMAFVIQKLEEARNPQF

binding result [1]: binds
B1: Mdm35ΔC5 (Mdm35 lacking the C-terminal five residues) (domain or fragment, S. cerevisiae, UniProt O60200 1-81, looked up)
chain: MGNIMSASFAPECTDLKTKYDSCFNEWYSEKFLKGKSVENECSKQWYAYTTCVNAALVKQGIKPALDEAREEAPFENGGKL
notes: Mdm35, Saccharomyces cerevisiae; full length is 86 residues, this construct lacks the C-terminal five residues; The coexpression plasmid encodes GST-Mdm35ΔC5; the stated 31 kDa of the heterodimer implies that GST was no longer on the chain, but its removal from the complex is not described; For Mdm35 crystallised alone (4YTV) GST was cleaved with PreScission protease; Disulfides Cys13–Cys52 and …

binding result [2]: binds | binding result [3]: binds | binding result [4]: binds | binding result [5]: binds | binding result [6]: binds | binding result [7]: binds
B2: full-length Mdm35 (from the His6–Ups1–Mdm35 complex) (natural protein, S. cerevisiae, UniProt O60200 1-86, looked up)
chain: MGNIMSASFAPECTDLKTKYDSCFNEWYSEKFLKGKSVENECSKQWYAYTTCVNAALVKQGIKPALDEAREEAPFENGGKLKEVDK
notes: Mdm35, Saccharomyces cerevisiae, full length (86 residues); The coexpression plasmid encodes GST-Mdm35; also called Mdm35WT; source: E. coli SHuffle T7, coexpressed with His6-Ups1, purified (Ni-NTA, Superdex 200)

binding result [8]: binds
B3: full-length Mdm35 N25C (natural protein, S. cerevisiae, UniProt O60200 1-86, looked up)
chain: MGNIMSASFAPECTDLKTKYDSCFCEWYSEKFLKGKSVENECSKQWYAYTTCVNAALVKQGIKPALDEAREEAPFENGGKLKEVDK
notes: Mdm35, Saccharomyces cerevisiae, full length (86 residues); The coexpression plasmid encodes GST-Mdm35; removal of GST is not described; source: E. coli SHuffle T7, coexpressed with His6-Ups1N24C, purified (Ni-NTA, Superdex 200)

Reference: paper PMC4532887, “Structural and mechanistic insights into phospholipid transfer by Ups1–Mdm35 in mitochondria” (Nature Communications, 2015)
